Measurements taken from US20050169843A1.
One block for each molecule: values may come before it. Primed or numbered codes have the meaning given here. FITC′ = fluorescein isothiocyanate label

Tests used:
[1] = test system: T1, Gly-Pro-Leu-Gly-Val-Arg-Gly-Lys(FITC)-Cys-NH2 (MMP-2 peptide substrate)
T1 sequence: GPLGVRGKC

[2] = test system: T2, Gly-Val-Arg-Leu-Gly-Pro-Gly-Lys(FITC)-Cys-NH2 (scrambled control peptide)
T2 sequence: GVRLGPGKC

thrombin = assay: cell-based or functional assay
[3] = test system: T3, Gly-D-Phe-Pip-Arg-Pro-Gly-Gly-Gly-Gly-Lys(FITC)-Cys-NH2 (control peptide)
T3 sequence: GFXRPGGGGKC

[4] = test system: T4, Gly-D-Phe-Pip-Arg-Ser-Gly-Gly-Gly-Gly-Lys(FITC)-Cys-NH2 (thrombin substrate peptide)
T4 sequence: GFXRSGGGGKC

[5] = test system: Cy-PL-MPEG at 20% fluorochrome loading (11 of 55 free amino groups labelled with Cy5.5)
[6] = target: MMP-9 (human recombinant protein purified from mammalian cells, Oncogene Research Products), APMA activated (human) (UniProt P14780); assay: cell-based or functional assay
Sequence of MMP-9 (human recombinant protein purified from mammalian cells, Oncogene Research Products), APMA activated (human) (P14780 107-707 limits assumed): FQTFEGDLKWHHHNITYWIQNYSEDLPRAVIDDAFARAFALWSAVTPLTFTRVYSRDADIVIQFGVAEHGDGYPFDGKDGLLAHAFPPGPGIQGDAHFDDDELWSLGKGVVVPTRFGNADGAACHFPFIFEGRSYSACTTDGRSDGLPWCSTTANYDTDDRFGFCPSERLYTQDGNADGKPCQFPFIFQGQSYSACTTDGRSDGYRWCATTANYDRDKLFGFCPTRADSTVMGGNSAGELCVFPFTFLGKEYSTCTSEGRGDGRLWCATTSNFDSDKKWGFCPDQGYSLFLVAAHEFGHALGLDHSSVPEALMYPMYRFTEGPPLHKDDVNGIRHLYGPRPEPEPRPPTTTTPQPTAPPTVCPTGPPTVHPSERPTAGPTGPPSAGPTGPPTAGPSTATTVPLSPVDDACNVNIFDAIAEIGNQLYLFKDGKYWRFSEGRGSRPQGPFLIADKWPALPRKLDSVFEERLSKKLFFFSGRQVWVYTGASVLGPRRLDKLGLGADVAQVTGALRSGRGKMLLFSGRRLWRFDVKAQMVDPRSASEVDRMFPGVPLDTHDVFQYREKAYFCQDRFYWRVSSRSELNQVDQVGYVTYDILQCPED

[7] = target: MMP-1 (human rheumatoid synovial fibroblast, Calbiochem), APMA activated (human) (UniProt P03956); assay: cell-based or functional assay
Sequence of MMP-1 (human rheumatoid synovial fibroblast, Calbiochem), APMA activated (human) (P03956 100-469 limits assumed): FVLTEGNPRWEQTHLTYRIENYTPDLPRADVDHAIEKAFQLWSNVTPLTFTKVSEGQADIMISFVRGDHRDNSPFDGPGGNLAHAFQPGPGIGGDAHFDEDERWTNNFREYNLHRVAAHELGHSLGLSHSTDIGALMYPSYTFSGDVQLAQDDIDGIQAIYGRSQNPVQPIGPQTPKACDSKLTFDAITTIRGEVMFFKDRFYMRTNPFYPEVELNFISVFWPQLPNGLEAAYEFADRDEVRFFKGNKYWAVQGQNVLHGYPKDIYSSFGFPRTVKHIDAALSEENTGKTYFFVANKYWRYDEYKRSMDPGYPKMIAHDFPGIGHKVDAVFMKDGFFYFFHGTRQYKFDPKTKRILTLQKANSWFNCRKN

[8] = target: MMP-2 (gelatinase 72 kD, Boehringer Mannheim), activated with p-aminophenyl mercuric acid; assay: cell-based or functional assay
[9] = target: MMP-2 (human recombinant protein purified from mammalian cells, Calbiochem), APMA activated (human) (UniProt P08253); assay: cell-based or functional assay
Sequence of MMP-2 (human recombinant protein purified from mammalian cells, Calbiochem), APMA activated (human) (P08253 110-660 limits assumed): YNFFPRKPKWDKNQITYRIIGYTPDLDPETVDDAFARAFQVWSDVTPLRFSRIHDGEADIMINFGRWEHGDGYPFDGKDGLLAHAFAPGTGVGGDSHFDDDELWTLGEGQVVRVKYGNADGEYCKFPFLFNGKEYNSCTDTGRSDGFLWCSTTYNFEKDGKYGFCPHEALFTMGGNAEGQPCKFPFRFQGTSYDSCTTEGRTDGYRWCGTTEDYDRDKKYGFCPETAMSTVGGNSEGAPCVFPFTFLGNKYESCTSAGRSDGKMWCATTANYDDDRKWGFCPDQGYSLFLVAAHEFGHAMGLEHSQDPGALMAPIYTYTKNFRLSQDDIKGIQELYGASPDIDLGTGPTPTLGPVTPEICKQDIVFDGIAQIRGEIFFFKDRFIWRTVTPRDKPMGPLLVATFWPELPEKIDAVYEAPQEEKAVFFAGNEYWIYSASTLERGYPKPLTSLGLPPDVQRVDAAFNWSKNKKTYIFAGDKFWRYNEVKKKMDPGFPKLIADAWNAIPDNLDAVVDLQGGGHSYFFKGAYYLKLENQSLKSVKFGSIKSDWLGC

[10] = target: MMP-8 (human neutrophil granulocyte, Calbiochem), APMA activated (human) (UniProt P22894); assay: cell-based or functional assay
Sequence of MMP-8 (human neutrophil granulocyte, Calbiochem), APMA activated (human) (P22894 101-467 limits assumed): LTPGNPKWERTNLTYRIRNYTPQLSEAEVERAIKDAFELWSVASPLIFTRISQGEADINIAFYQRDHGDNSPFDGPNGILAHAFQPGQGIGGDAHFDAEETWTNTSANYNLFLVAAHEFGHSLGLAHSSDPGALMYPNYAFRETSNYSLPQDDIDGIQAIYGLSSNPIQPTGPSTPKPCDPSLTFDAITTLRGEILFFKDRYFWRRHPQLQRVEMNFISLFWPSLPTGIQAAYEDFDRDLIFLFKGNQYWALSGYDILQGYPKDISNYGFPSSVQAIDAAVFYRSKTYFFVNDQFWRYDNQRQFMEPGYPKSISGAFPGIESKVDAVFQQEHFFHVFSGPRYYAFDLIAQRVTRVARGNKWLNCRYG

[11] = target: T5, MMP-7 (human recombinant, E. Coli, Calbiochem), APMA activated (human) (UniProt P09237); assay: cell-based or functional assay
T5 sequence (looked up): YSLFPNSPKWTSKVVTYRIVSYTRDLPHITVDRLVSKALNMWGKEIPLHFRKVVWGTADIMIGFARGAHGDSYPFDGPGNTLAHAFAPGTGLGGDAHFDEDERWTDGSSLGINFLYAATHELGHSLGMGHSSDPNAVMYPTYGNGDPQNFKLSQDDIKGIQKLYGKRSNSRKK

Molecule: MMP-2 (gelatinase 72 kD, Boehringer Mannheim), activated with p-aminophenyl mercuric acid
cleavage followed by HPLC [1]: confirmed by HPLC showing only cleavage of the former but not the latter
cleavage followed by HPLC [2]: confirmed by HPLC showing only cleavage of the former but not the latter

NIRF signal after addition of thrombin (thrombin): 1 fold
Molecule: control probe (PGC graft copolymer carrying Cy5.5-labelled thrombin control peptide)

Molecule: thrombin
enzymatic assay, cleavage followed by HPLC [3]: there was no cleavage when the serine at P1′ position was replaced by a proline residue
enzymatic assay, cleavage followed by HPLC [4]: the peptide was recognized by thrombin and cleaved into two major products

Molecule: trypsin
fluorescence signal increase upon activation (trypsin cleavage of the backbone) [5]: Maximum fluorescence recovery was obtained at 20% loading (15-fold fluorescence signal increase upon activation)

relative fluorescence increase at equimolar conditions (scaled to active MMP-2 set to 100%) [6]: 19%
relative fluorescence increase at equimolar conditions (scaled to active MMP-2 set to 100%) [7]: 19%
fluorescence increase in vitro [8]: < 850%
fluorescence activation (7 pmole enzyme, 10 pmole probe, 10 minutes, 37°) [9]: 4.7 AU
relative fluorescence increase at equimolar conditions (scaled to active MMP-2 set to 100%) [10]: 28%
relative fluorescence increase at equimolar conditions (scaled to active MMP-2 set to 100%) [11]: 12%
B1: MMP-2 sensitive probe (PGC graft copolymer carrying Cy5.5-labelled MMP-2 substrate peptides) (peptide, part only; not given: graft copolymer backbone and dye, part only)
peptide: {Cy5.5}-GPLGVRGK(FITC′)C-NH2
modifications: not fully specified (residue 9); printed as GPLGVRGK(FITC)C-NH2; also: about 12 peptides per PGC graft copolymer
